Laboratory results: paper PMC314469, “Protein Interaction Networks by Proteome Peptide Scanning” (PLoS Biology, 2004)

T1: Boi1 SH3 (BOI1_YEAST), P38041
T1 chain: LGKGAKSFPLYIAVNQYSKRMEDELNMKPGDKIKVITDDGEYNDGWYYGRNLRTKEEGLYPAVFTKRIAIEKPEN

T2: Boi2 SH3 (BOI2_YEAST), P39969
T2 chain: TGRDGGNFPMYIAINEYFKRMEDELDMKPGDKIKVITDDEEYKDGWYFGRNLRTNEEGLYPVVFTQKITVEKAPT

T3: Yhr016c SH3 (YSC84_YEAST), P32793
T3 chain: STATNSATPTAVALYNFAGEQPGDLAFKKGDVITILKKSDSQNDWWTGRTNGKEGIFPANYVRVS

T4: Yfr024 SH3 (LSB3_YEAST), P43603
T4 chain: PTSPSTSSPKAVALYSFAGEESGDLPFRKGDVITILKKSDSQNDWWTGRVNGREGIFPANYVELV

T5: Rvs167 SH3 (RV167_YEAST), P39743
T5 chain: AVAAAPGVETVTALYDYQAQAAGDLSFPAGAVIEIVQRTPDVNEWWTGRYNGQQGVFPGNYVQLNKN

B1: YOR367W 153-166 (peptide)
chain: TKKPRPPVKSKPKH
B2: YHL007C 507-520 (peptide)
chain: THAPTTPNRTSPNR
B3: YOL090W 24-37 (peptide)
chain: TGLPKKPLKTIRLV
B4: YDL113C 210-223 (peptide)
chain: TLIPPIPEKQSIKN
B5: YDL029W 109-122 (peptide)
chain: TEPPMNPLKNREKM
B6: YGL207W 463-476 (peptide)
chain: TKVPSKPDRNSKIL
B7: YDL197C 472-485 (peptide)
chain: TDSPQLPSKDKSQE
B8: YDR059C 59-72 (peptide)
chain: TDYPFKPPKVNFTT
B9: YDR464W 568-581 (peptide)
chain: TEVPSKPKKPSKTE
B10: YJL045W 461-474 (peptide)
chain: TLQPGLPHKPLASN
B11: YDL164C 384-397 (peptide)
chain: TLRPGIPLKPMLAK
B12: YKL148C 467-480 (peptide)
chain: TLQPGLPHKPLPSD
B13: YHR129C 114-127 (peptide)
chain: TEAPMNPLKNREQM
B14: YOR191W 815-828 (peptide)
chain: TGFPPTPLKREGVG
B15: YBR082C 59-72 (peptide)
chain: TDYPFKPPKISFTT
B16: YER068W 519-532 (peptide)
chain: TKTPTQPIRLQTVS
B17: YLR289W 228-241 (peptide)
chain: TGRPDKPFRALLVD

Experiments:
Test in all cases: SPOT array
[1] = target: T1, Boi1 SH3 (BOI1_YEAST), P38041
[2] = target: T2, Boi2 SH3 (BOI2_YEAST), P39969
[3] = target: T3, Yhr016c SH3 (YSC84_YEAST), P32793
[4] = target: T4, Yfr024 SH3 (LSB3_YEAST), P43603
[5] = target: T5, Rvs167 SH3 (RV167_YEAST), P39743

Row | Binder | normalised SPOT signal, Boehringer light units (BLU); mean over the file's lines of this peptide [1] | normalised SPOT signal, Boehringer light units (BLU); mean over the file's lines of this peptide [2] | normalised SPOT signal, Boehringer light units (BLU); mean over the file's lines of this peptide [3] | normalised SPOT signal, Boehringer light units (BLU); mean over the file's lines of this peptide [4] | normalised SPOT signal, Boehringer light units (BLU); mean over the file's lines of this peptide [5]
1 | B1 | 61.5 | 25.1 | 127 | 344 | 54.9
2 | B2 | 74.3 | 14.4 | 4050 | 14600 | 552
3 | B3 | 57.7 | 74.6 | 144 | 746 | 78.4
4 | B4 | 82.1 | 37.5 | 324 | 259 | 38
5 | B5 | 87.1 | 55.1 | 125 | 648 | 147
6 | B6 | 152 | 27.3 | 416 | 4410 | 44
7 | B7 | 116 | -0 | 95.8 | 4380 | 95.6
8 | B8 | 58.8 | 65.8 | 232 | 570 | 93.6
9 | B9 | 361 | 39.9 | 67.2 | 3310 | 75.4
10 | B10 | 91.4 | 62.6 | 86.1 | 3.9 | 16.3
11 | B11 | 105 | 49.9 | 229 | 303 | 118
12 | B12 | 82.6 | 53.3 | 352 | 295 | 74.3
13 | B13 | 1.9 | 56.4 | 319 | 395 | 21.5
14 | B14 | 7.5 | 54 | 430 | 1730 | 58.1
15 | B15 | 54.7 | 89.1 | 116 | 374 | 43.3
16 | B16 | 139 | 60.2 | 234 | 1360 | 104
17 | B17 | 110 | 47.3 | 656 | 5660 | 789
